This series can be described thus: soluble on expression in E. coli; label from the status in PepcDB or PDB records.
On to “MRKINTNKNDSQIYSRGFIMRNIRPSQLGQYIRRALRLHFIPVVLVAAPSVMANTNQETEQLETLVVTASALKVETPAQETPKALSIVTQEEIVARAPQKLDEALRYTSGVTAQPYGADNDTDWLKVRGFDAATYQDGSRLFRDGYYTWLIEPYALERIEVLKGPASILYGEAPPGGVVNAVQKKPTDIPQGEVGLQVGNDALRTLTLDISDYANQDGSVRYRLVALMKENDGQLNGTQTSRNYLAPSLSIDISEQTRLTLLASFLEDSGVPTNPFFPAAGTLIDSNFGHIDPSTNLGQPDYDKYERRQVSLGYLFEHDLNDVWALSQTFNYGDNDLYLRSSYAFSNDDPSKDTLTQGIVFRDGSTESLSLDNKAVAKWDSARVENTLLMGLELQRHQTQGVELDNYSFGTINPFNPNYGNFTPIDESSAADRTITKEQASLYAQYQIKLDQQWIGLIGGRMDWVDTENESQKNMQRKSRSDAEFSFNAGLMYLASNGVSPYLSYSQSFDVLSTIDSAKGELYKPLKGEQTEVGVKYQPEFYDGYINLAWFDITQQNALVTNPTTFVATQTGEMTAQGIEVESVGYVTDSLKLTASYTFTDAKTDETGGKGTQQAGLIPKHQASAWLDYDAAQLGLQGWTFGSGVRYIGESKDNPRSSDRTVPSVTLVDLMAGYEITENWQVQLNINNLFDREFVSGCDYWCYYGQSRSAVLSANYRW”, for which the “soluble on expression in E. coli” value is given as “not soluble”.
For “MRKISYRFVYNRKKSLNDRGTALVQVEAYLNKKKVYFSTHVYLRPEQWDVKRKIIKDHPNQDALNGMLNEFIIELEKKELSLWRQGKTITLSLIKEEFKSNTDASFLGFARKEIMSSQLKDSTKRNHLTTISLLQSFKPTIEFEDLTYNFVTDFEKNLYESGYQTNTVAKHMKHLKSFVNAAINKGYIDPNNYAFRRYKIKMKEGKHVFLLPEEMKKLEEVSLTGRNSCLEHTLDAFLFCCYTGLRYSDFVNLNEKNIVKMDGKLWLIFDSVKTGTEVKLPLNLLFEGKALTLLQKYQGKWSSFFSIK”, the “soluble on expression in E. coli” value is on record as “not soluble”.
In the case of “MRKKSSSNKEETALHPPPENFETATAELEQIVAGMETGQMSLEDALSAYKRGVELLQYCQNILKNSQQQIKILEADMLKHFSPAEHDAS”, the “soluble on expression in E. coli” value is “not soluble”.
The same measure for “MRKSRLSRYKQNKLIELFVAGVTARTATEPDSIVYTDCYRRYDVLDAGEFSHFRINHSTHFAERQNHINGIGNFWNRAKRHLRKFDGIPKEHFEPYLKECERRFLEHHHHHH”: “soluble”; for “MRKVRIANEQTEESDIIKIVHLSDIHFSEAYYMPEIADSMLQIINESSPDIVIITGDLTENGFAAEYNGAKNFIDKIECKNKVIVPGNHDSKNAGYLFFEDIFKARSSSGYFGDVTVIGLDSSQPELDDGHIGRENYGWIESTFSTGSFKVFALHHHLIPIPKTGRGNNVLVDAGDVLELLDRSGVNLVLCGHWHIPWVWRLNDMFIISAGTVCSSKIRGKTSQCYNLIELETPESECTRWHLRITRVFSSGIKELVVDNIV”: “not soluble”; for “MRLFFQHFLLFYAASAYNVSVNTNRSFLFGDVLEPLCSINVTGQNLTRSELIELFHKWEKYTSSQISSSSSISDYRKAMPCFPGPNLNLTSSNSDMIPQYPNCETFVNISKTTFGEANDLLEEVKKVRGVEQMDVSLKSVINSLSSRLQNLIDYLPDGATKNKTQERLSTLIEIGNQKLPETLRNSTRNQPPTQSTKSEFNPFELLSCFNISMMKTATVSGQTIGSIACSKFKLCSFSAVTSNPCLSNLRITEAQYDSVVNKTIAELIGEKLGGEQVQKKLGSAIGQFFGEHPRSKRTPKPRCENCTEEEYEDVTPLSDQVKMDGREELEESDDRSSGVESDESSGEVIDESYGKIDELDQEMSKRSTDSRKMSHEEITQAKIAKIRESIIDQLLTKTDDPDNSTDFQPTKRSAALEASQDNFKEALDNFRTEHIEDMTEGSGQESDRPTDSTKLYGSTQSPSEIIRPSIRTLNMETESSPVDFIENMSPISDSNDMDSSTVPNVAKKNNNFEKDLDAFRTVNNGSEKLNSSMFQELQTVLNLKLNSTMLEYAASFANISESLPKMSGEFTVSQFLQKMDINDWPTLKHLLNSMQSVFGNLPGFSQISNFIENLSSSGLDLKSVLKMIPAMNSSGTSLHKDAVLDLLNSFKSKISSSDTPKSPALEAAIQKISEASTLPTLLQNDLNSNDSSISDALNILKSNPLLSSLKI”: “soluble”.
The same measure for “MRLGVNVDHVATVRQARRTFEPSPVFAALIAQQAGADQITLHLREDRRHIQDRDLELIKELITIPVNLEMAPTEEMREIALRVKPDRITLVPERREEITTEGGLDVVSLKEKLKEYLKPIKEAGIEVSLFIEAQKEQIDASVEVGADAIEIHTGRYANLWNEHRFEEAKEELNRIKEAAIYAKEKGLKVYAGHGLTYHNVKDFVRELKGYVEELNIGHSIVANAVIFGFERAVKEMLNLIKT”: “soluble”.
The value for “MRLKDKAVLITGAAHGIGRATLELFAKEGARLVACDIEEGPLREAAEAVGAHPVVMDVADPASVERGFAEALAHLGRLDGVVHYAGITRDNFHWKMPLEDWELVLRVNLTGSFLVAKAASEAMREKNPGSIVLTASRVYLGNLGQANYAASMAGVVGLTRTLALELGRWGIRVNTLAPGFIETRMTAKVPEKVREKAIAATPLGRAGKPLEVAYAALFLLSDESSFITGQVLFVDGGRTIGAAPA” was “soluble”.
In the case of “MRLRVDVIPGEHLAYPDVVLVVDVIRATTTAAAFLEAGAEALYWTPSLESALAFKDEDVVLAGETGGLKPPRFDLGNSPREALSAQVAGRVVVMSTTNGTKAAHAAARTAKHVLLASLYNAHAAARLARELATEEVAILCAGKEGRAGLDDLYTAGVLAEYLGFLGEVEPEDGARVALAVKRAYPDPLEALSLSAAALALKQVGLEADVPFCAQVAKSAAVPVLRGRVGEALIFKRA”, the “soluble on expression in E. coli” value is given as “soluble”.
The same measure for “MRLTNYSDYALRILTYLGLKREELSTITEIADCYGISRNHVVKIVHHLGQLGYVDTLRGKNGGIRLAHAPEKINIGEVIRHTETSMDIVECFSNQNSCIIGCSCVLRTAISEALSAFMAVLDDYTLADLIAPRRQLSRKLHVMQISDSLSD”: “not soluble”; for “MRMLAAERRDHLLGLLARQGKIVAKDVAAELRISEDTVRRDLRDLASEGLCQRVYGGALPVSPAVADYGARRTVAPDGKRKVASAAAGLVRPGGVVILDGGTTALAVVHALPEDLDCTVITHSPTIAAALLDHPRAEVFVLGGRLFKHSAVACGAAAVEAAQNVSADLFLLGVTGVHLEAGLTTGDAEDAAMKRALAARAADTYVLASSEKIGTASRYRVLPWEEISGLVTDTPPHDPVIEQLTAGGVDVLAADAAALEHHHHHH”: “not soluble”.
Regarding “MRNIAEAYFQNMVETATPLEQIILLYDKAIECLERAIEIYDQVNELEKRKEFVENIDRVYDIISALKSFLDHEKGKEIAKNLDTIYTIILNTLVKVDKTKEELQKILEILKDLREAWEEVKKKVHHHHHH”, the “soluble on expression in E. coli” value is “soluble”.
The value for “MRNIQIALTKGRLEKHVIPLFEQIGIDCSELKNKGRKLVFQSKNTDISFILVKAVDVATYVEHGVADIGVVGKDILMENEKDIYEMLDLGVGVCKFCVASIPTYNPKSYRKKCIATKYPHITSNYFHNKGEDVEIIKIEGSVEIAPILGLADAIVDIVETGKTLQENGLIVFEEMYSISARMIVNKAALKTKKDEIFSIINMMEQEILSGK” was “not soluble”; that for “MRNIQPRRLVTASGQPIVIRTAWPEDAERIVAFVKAVTAEALYLLTTEAEVTVTEDQQRQWLQKMADDPGKLALLAEHDGEMIGFLDFHNGNKRFRHEREKRLSRPGDRHGVACSAP” was “not soluble”; that for “MRPEELTKRFNEFSLWMTEEGVEQMSSYRNTNWEALKTELGKLPTLRHSCKNHVPQLVKEFCLEKRRYGVNPMYVHFLFCYYKKNIEDTRGRLEDDKETLEEIQRTHDELNVKFEELNKVKTFIKKQKESKGNVYLPNEYTEKHRLQNTIDNLKDKIQILVSTRNEQLWDFDNIPDGFQPMLELHHLKKDQVVYFVEKYLQRYTLGNKHKEIQLIVGKGSHSIDNDSAIQRKIRRNYAENVRSHPKNYGILLLKVP” was “not soluble”.
The value for “MRPRYRASGPSSSPDRTSSQPGSRSMIQCKRVYEPASPADGRRVLVDRLWPRGIRKEALAMDDWLKEVAPSNEVRKQFCHDPALFDSFREHYRAELQAHPEHWWGLLDSAREGTLTLLYGAHDQQHNNAVVLAEFLEEELDRQQPGSSPTCYADRLS” was “not soluble”.
The same measure for “MRQHTRIANHNHYSWRIAVMTDTHSIAQPFEAEVSPANNRHVTVGYASRYPDYSRIPAITLKGQWLEAAGFATGTAVDVKVMEGCIVLTAQPPAAEESELMQSLRQVCKLSARKQKQVQAFIGVIAGKQKVA”: “not soluble”.
In the case of “MRQSSQARETTETKIKLNLQLDESTNVSIQTGVGFFDHMLTLFARHGRFGLQVEAEGDVFVDAHHTVEDVGIVLGNCLKEALQNKEGINRYGSAYVPMDESLGFVAIDISGRSYCVFQGELTNPKLGDFDTELTEEFFRAVAHAANITLHARVLYGSNTHHKIEALFKAFGRALREAVEKNANITGVNSTKGML”, the “soluble on expression in E. coli” value is given as “not soluble”.
The same measure for “MRQWTATHMAKLARKASIAVGKKGTDLPGQIARRVDHNILRKLAKQVDDIVFISGTNGKTTTSNLIGHTLKKNQINIIHNNEGANMAAGITSAFIMQSSKNTNIAIIEIDEGSIPRVLNEVTPSMMVFTNFFRDQMDRFGEIDIMVDNIAKSISNKGIKLLLNADDPFVSRLKIASHSIVYYGMKKFAHDFEQSTMNESKYCPNCGRLLQYDYIHYNQIGHYHCECGFKREEPTYEVSSFDASPFLKMIINQSEFNMKIAGDFNSYNAIAAYTVLRELGLNDDAIRKGFETYTSDNGRMQYFSKNKKEAMINLAKNPAGMNASLSVGEQIDDKKIYVISLNDNAADGRDISWIYDADFEKLATQDIEAIIVSGTRAEELQLRLKLAEVEVPIKVEKDIYKATALTMKYSSFTVAIPNYTSLTPMLEQLNRSFEGGQS”: “not soluble”; for “MRRAEMLLLKSLAETLMADRDNRHDDLQATMRLAHLSSPEMILYMVNRVLELEESIERIAAVLQKLSADEPMPLEETPPEPAFEPALQSRATETAET”: “not soluble”; for “MRRELGMGSEWLGEECEIVMGQSPPSETCNTVGIGIPLLNGPTEFGPHHPSPAQFTTDVRKRAIPGDILFCVRGSTTGRMNWADQEYAIGRGIAAIRHKFKPELQPFVRAVIECYLPELLAQATGSTFPNVSAQQLSNLKWPELAADEQRAIAYILGTLDDKIELNRKQNETLEAMARALFKAWFVDFEPVRAKLEGRWQRGQSLPGLPAHLYDLFPDCLVDSELGEIPEGWEIGSFADVVEIIGGSTPKTSVSEYWGGDIPWFSVVDTPASSDVFVVQTEKSITQSGLNESSARLISKGTTIISARGTVGNLAIAGCDMTFNQSCYALRSKNSLGSYFVFLSAQRMVEQLKAMAHGSVFSTITRQTFEAVQTVLPPENVLQQFERSFASLFDEILNNVNESRTLAKLRDTLLPKLISGELRVNDAKRILARIELDTATQRREQ”: “soluble”.
The value for “MRRVEKVIIVEGRSDKQKVAAVLNEPVVIVCTNGTISDARLEELADELEGYDVYLLADADEAGEKLRRQFRRMFPEAEHLYIDRAYREVAAAPIWHLAQVLLRARFDVRIESLMRGRGE” was “soluble”.
The same measure for “MRRVNILCSFALLFASHTSLAVTYPLPPEGSRLVGQSFTVTVPDHNTQPLETFAAQYGQGLSNMLEANPGADVFLPKSGSQLTIPQQLILPDTVRKGIVVNVAEMRLYYYPPDSNTVEVFPIGIGQAGRETPRNWVTTVERKQEAPTWTPTPNTRREYAKRGESLPAFVPAGPDNPMGLYAIYIGRLYAIHGTNANFGIGLRVSQGCIRLRNDDIKYLFDNVPVGTRVQIIDQPVKYTTEPDGSNWLEVHEPLSRNRAEYESDRKVPLPVTPSLRAFINGQEVDVNRANAALQRRSGMPVQISSGSRQMF”: “not soluble”.

(Values after the DeepSol protein solubility set.)
